The results in this text go back to patent US20250250357A1 (NANJING ZAIMING PHARMACEUTICAL, published 2025).

The target of assay [1] is T1, human MSLN-FL-his protein (human, UniProt Q13421 296-580).
T1 construct: Made in HEK293E cells, purified on nickel column; also called hMSLN-FL-his; human MSLN full-length protein; not shown: His tag
Kind of assay: ELISA, coated antigen, antibody 200 nM. Background: In an ELISA, binding on a coated surface is turned into a signal by an enzyme label.

The target of assay [2] is T1, human MSLN-FL-his protein. The assay is described as follows: ELISA, coated antigen, antibody 20 nM.
The target of assay [3] is T1, human MSLN-FL-his protein. The assay is described as follows: ELISA, coated antigen, antibody 0.2 nM.
Assay [4] addresses T1, human MSLN-FL-his protein. The assay is described as follows: ELISA, coated antigen, antibody 0.0002 nM.
For assay [5], the target named is T1, human MSLN-FL-his protein. Kind of assay: ELISA, coated antigen, antibody 2 nM.
Assay [6] has as its target T1, human MSLN-FL-his protein. The assay is described as follows: ELISA, coated antigen, no antibody (blank).
Assay [7] concerns the target T1, human MSLN-FL-his protein. Kind of assay: ELISA, coated antigen, antibody 0.02 nM.
The target in assay [8] is T1, human MSLN-FL-his protein. Kind of assay: ELISA, coated antigen, antibody 0.002 nM.
In assay [9] the target is T2, human MSLN-R3-his protein (human, UniProt Q13421 487-598).
T2 construct: it is put last here; also called human MSLN-R3 protein; hMSLN-R3-his; not shown: His tag
The assay is described as follows: ELISA on coated antigen, antibody 0.2 nM.

Assay [10] deals with T2, human MSLN-R3-his protein. Kind of assay: ELISA on coated antigen, antibody 0.002 nM.
The target in assay [11] is T2, human MSLN-R3-his protein. Kind of assay: ELISA on coated antigen, antibody 200 nM.
For assay [12], the target named is T2, human MSLN-R3-his protein. The assay is described as follows: ELISA on coated antigen, antibody 2 nM.
Assay [13] has as its target T2, human MSLN-R3-his protein. The assay is described as follows: ELISA on coated antigen, antibody 0.0002 nM.
For assay [14], the target named is T2, human MSLN-R3-his protein. The assay is described as follows: ELISA on coated antigen, antibody 0.02 nM.
In assay [15] the target is T2, human MSLN-R3-his protein. The assay is described as follows: ELISA on coated antigen, no antibody (blank, column 'none').
Assay [16] has as its target T2, human MSLN-R3-his protein. Kind of assay: ELISA on coated antigen, antibody 20 nM.
The target in assay [17] is T3, human MSLN-R3 on HEK293T-hMSLN-R3 recombinant cells (human, UniProt Q13421 487-606).
T3 construct: the C-terminal limit is uncertain; also called human MSLN-R3 membrane protein
Kind of assay: FACS, HEK293T-hMSLN-R3 cells. (In general: Flow cytometry measures light scatter and fluorescence of single cells or particles in a stream.)

Assay [18] addresses T4, monkey MSLN on HEK293T-monkey MSLN recombinant cells (monkey).
T4 construct: Full-length precursor as transfected; processing on the cell is not described; also called HEK293-monkey MSLN
T4 chain: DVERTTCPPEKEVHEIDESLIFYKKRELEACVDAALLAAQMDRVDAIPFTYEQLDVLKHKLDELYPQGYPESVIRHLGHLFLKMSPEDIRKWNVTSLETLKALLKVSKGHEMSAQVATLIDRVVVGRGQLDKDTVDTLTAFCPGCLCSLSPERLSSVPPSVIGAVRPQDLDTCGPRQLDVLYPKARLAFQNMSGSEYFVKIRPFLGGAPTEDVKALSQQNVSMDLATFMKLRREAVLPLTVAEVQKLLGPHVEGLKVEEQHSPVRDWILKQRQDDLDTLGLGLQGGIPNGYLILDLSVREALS
Kind of assay: FACS, HEK293T-monkey MSLN cells.

T1 sequence (Q13421 other isoform, or with tags, fused parts or gaps): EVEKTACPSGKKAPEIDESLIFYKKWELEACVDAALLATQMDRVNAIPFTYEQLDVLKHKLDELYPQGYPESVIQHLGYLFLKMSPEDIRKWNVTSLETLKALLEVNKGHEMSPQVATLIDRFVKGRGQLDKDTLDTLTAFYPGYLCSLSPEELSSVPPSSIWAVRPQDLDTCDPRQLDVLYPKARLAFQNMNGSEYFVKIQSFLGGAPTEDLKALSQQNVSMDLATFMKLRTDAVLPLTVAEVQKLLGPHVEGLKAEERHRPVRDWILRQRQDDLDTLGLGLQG
T3 sequence (Q13421 495-614): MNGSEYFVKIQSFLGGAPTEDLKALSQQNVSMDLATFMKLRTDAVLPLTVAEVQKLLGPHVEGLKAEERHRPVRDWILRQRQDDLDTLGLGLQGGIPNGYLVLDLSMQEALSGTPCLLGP
T2 sequence (Q13421 495-606): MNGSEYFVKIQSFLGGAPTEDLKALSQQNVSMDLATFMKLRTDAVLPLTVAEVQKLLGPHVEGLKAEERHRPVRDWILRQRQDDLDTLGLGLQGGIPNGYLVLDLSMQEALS

B1: S009-F7.25.19 chimeric antibody (antibody, human IgG1, kappa, V domains shown)
VH: QVQLQQPGTELVKPGASVKLSCKASGYTFTSYWMHWVKQRPGQGLEWIGNIIPSNGGTKYNEKFKSKATLTVDKSSSTAYMQLSSLTSEDSAVYYCSPHYYGGSPGFAYWGQGTLITVSA
VL: DIVMTQSQKFMSTSVGDRVSVICKASQNVGTNVAWYQQKPGQSPKALIYSASYRYSGVPDRFTGSGSGTDFTLTISNVQSEDLAEYFCQQYNSYPLTFGGGTKLEIKR
notes: Human-murine chimeric antibody, human IgG1/kappa constant regions
B1: the OD450 in assay [1] came out at 2.32; in assay [2], 2.48; in assay [3] it was 2.4; in assay [4], 0.52; in assay [5], 2.39; in [6] it was 0.06. Also, the OD450 in assay [7] was found to be 1.9; in [8], 1.25.

B2: S009-F7.21.16 (antibody, human IgG1, kappa, V domains shown)
VH: QVQLQQPGTELVKPGASVKLSCKASGYTFTTFWMHWVKQRPGQGLEWIGGVNPTNGGTNYNEKFRTKATLTVDKSSTTADMQLSSLTSEDSAVYYCAPHYISSRPGFAYWGQGTLVTVSG
VL: DIVMTQSQKFMSTSGGDRVSVTCKASQNVGTNVAWYQQKPGQSPKALIYSASYRYSGVPDRFTGSGSGTDFILTISNVQSEDLAEYFCQQYNSYPLTFGGGTKLEIKR
notes: Human-murine chimeric antibody, human IgG1 heavy and kappa light constant regions
Regarding B2, the OD450 was found to be 2.5 OD in [9]; 0.71 OD in [10]; 2.92 OD in assay [11]; 2.75 OD in [12]; 0.31 OD in assay [13]; 1.32 OD in assay [14]. In addition, the values for the OD450 in assay [15] and in assay [16] were 0.08 OD and 2.52 OD, respectively.

B3: F3.80.22-H2 (scFv, not shown: small tags and cut ends)
scFv: DIVMTQTPLSLPVTPGEPASISCRSSQSLEHNNGNTYLHWFLQKPGQSPQLLIYKVSNRFSGVPDRFSGSGSGTDFTLKISRVEAEDVGVYYCSQSTHVPFTFGQGTKLEIKGGGGSGGGGSGGGGSEVQLVQSGAEVKKPGATVKISCKASGYTFTDYEIHWVQQAPGKGLEWMGAFDPEIGGSAYNQKFKDRVTITADKSTSTAYMELSSLRSEDTAVYYCTDYYGSSSGYFDVWGQGTTVTVSS
notes: also called S009-F3.80.22 humanized antibody VL1 + VH2
Usually EC50 stands for the concentration giving half of the maximal effect. Consider B3, for which, in assay [17], the EC50 was 0.67 nM and the Maximum_MFI was 1790 MFI. In [18], the Maximum_MFI turned out to be 303 MFI and the binding result is “no binding”.

B4: F3.80.22-H3 (scFv, not shown: small tags and cut ends)
scFv: DIVMTQTPLSLPVTPGEPASISCRSSQSLEHNNGNTYLHWFLQKPGQSPQLLIYKVSNRFSGVPDRFSGSGSGTDFTLKISRVEAEDVGVYYCSQSTHVPFTFGQGTKLEIKGGGGSGGGGSGGGGSEVQLVQSGAEVKKPGATVKISCKASGYTFTDYEIHWVQQAPGKGLEWMGAFDPEIGGSAYNQKFKDRVTITADKSTSTAYMELSSLRSEDTAVYYCTDYYGSSSGYFDVWGTGTTVTVSS
notes: also called S009-F3.80.22 humanized antibody VL1 + VH3
On to B4, for which, in [17], the EC50 came out at 4.41 nM and the Maximum_MFI came to 1750 MFI. Besides, in assay [18], the Maximum_MFI was 330 MFI and the binding result was “no binding”.

B5: F3.80.22-H1 (scFv, not shown: small tags and cut ends)
scFv: DIVMTQTPLSLPVTPGEPASISCRSSQSLEHNNGNTYLHWFLQKPGQSPQLLIYKVSNRFSGVPDRFSGSGSGTDFTLKISRVEAEDVGVYYCSQSTHVPFTFGQGTKLEIKGGGGSGGGGSGGGGSEVQLVQSGAEVKKPGATVKISCKVSGYTFTDYEIHWVQQAPGKGLEWMGAFDPEIGGSAYNQKFKDRVTITADKSTDTAYMELSSLRSEDTAVYYCTDYYGSSSGYFDVWGQGTTVTVSS
notes: also called S009-F3.80.22 humanized antibody VL1 + VH1
B5: in [17], the EC50 was determined as 2.14 nM and the Maximum_MFI came out at 1700 MFI. For the same molecule, in assay [18], the Maximum_MFI was 278 MFI and the binding result is “no binding”.

B6: F3.80.22-H8 (scFv, not shown: small tags and cut ends)
scFv: DIVMTQTPLSLPVTPGEPASISCRSSQSLEHNDGNTYLHWFLQKPGQSPQLLIYKVSNRFSGVPDRFSGSGSGTDFTLKISRVEAEDVGVYYCSQSTHVPFTFGQGTKLEIKGGGGSGGGGSGGGGSEVQLVQSGAEVKKPGATVKISCKASGYTFTDYEIHWVQQAPGKGLEWMGAFDPEIGGSAYNQKFKDRVTITADKSSSTAYMELSSLRSEDTAVYYCTDYYGSSSGYFDVWGTGTTVTVSS
notes: also called S009-F3.80.22 humanized antibody VL1a + VH4
With B6, in assay [17], the EC50 is 10.2 nM and the Maximum_MFI turned out to be 1400 MFI. In addition, in assay [18], the Maximum_MFI was found to be 317 MFI and the binding result was “no binding”.

B7: F3.80.22-H6 (scFv, not shown: small tags and cut ends)
scFv: DIVMTQTPLSLPVTPGEPASISCRSSQSLEHNDGNTYLHWFLQKPGQSPQLLIYKVSNRFSGVPDRFSGSGSGTDFTLKISRVEAEDVGVYYCSQSTHVPFTFGQGTKLEIKGGGGSGGGGSGGGGSEVQLVQSGAEVKKPGATVKISCKASGYTFTDYEIHWVQQAPGKGLEWMGAFDPEIGGSAYNQKFKDRVTITADKSTSTAYMELSSLRSEDTAVYYCTDYYGSSSGYFDVWGQGTTVTVSS
notes: also called S009-F3.80.22 humanized antibody VL1a + VH2
As to B7, in assay [17], the EC50 is 8.39 nM and the Maximum_MFI was found to be 1440 MFI. Moreover, in [18], the Maximum_MFI was determined as 338 MFI and the binding result is recorded as “no binding”.

B8: F3.80.22-H4 (scFv, not shown: small tags and cut ends)
scFv: DIVMTQTPLSLPVTPGEPASISCRSSQSLEHNNGNTYLHWFLQKPGQSPQLLIYKVSNRFSGVPDRFSGSGSGTDFTLKISRVEAEDVGVYYCSQSTHVPFTFGQGTKLEIKGGGGSGGGGSGGGGSEVQLVQSGAEVKKPGATVKISCKASGYTFTDYEIHWVQQAPGKGLEWMGAFDPEIGGSAYNQKFKDRVTITADKSSSTAYMELSSLRSEDTAVYYCTDYYGSSSGYFDVWGTGTTVTVSS
notes: also called S009-F3.80.22 humanized antibody VL1 + VH4
Take B8: in assay [17], the Maximum_MFI is 1410 MFI. For the same molecule, in assay [18], the Maximum_MFI came to 357 MFI and the binding result is given as “no binding”.

B9: F3.80.22-H7 (scFv, not shown: small tags and cut ends)
scFv: DIVMTQTPLSLPVTPGEPASISCRSSQSLEHNDGNTYLHWFLQKPGQSPQLLIYKVSNRFSGVPDRFSGSGSGTDFTLKISRVEAEDVGVYYCSQSTHVPFTFGQGTKLEIKGGGGSGGGGSGGGGSEVQLVQSGAEVKKPGATVKISCKASGYTFTDYEIHWVQQAPGKGLEWMGAFDPEIGGSAYNQKFKDRVTITADKSTSTAYMELSSLRSEDTAVYYCTDYYGSSSGYFDVWGTGTTVTVSS
notes: also called S009-F3.80.22 humanized antibody VL1a + VH3
On to B9, for which, in [17], the EC50 was 3.91 nM and the Maximum_MFI came to 1530 MFI. In [18], the Maximum_MFI is 329 MFI and the binding result is reported as “no binding”.

B10: S009-F7.69.8 (antibody, human IgG1, kappa, V domains shown)
VH: EVHLQQSGPELVKPGASVRIPCKASGYTFTDYNMDWVKQSHGKSLEWIGDINPDNGGTIYTQKFKGKATLTVDKSSSTAYMELRSLTSEDTAVYYCARRLHYYGSSGLDYWGQGTTLTVSS
VL: DIQMTQSPASLSAYVGETVTITCRASGNIHNYLAWYQQKQGKSPQLLVYNAKTLADGVPSRFSGSGSGTQYSLKINSLQPEDFGSYYCQHFWSTVWTFGGGTKLEIKR
notes: as for B2
Consider B10, for which the OD450 in assay [9] worked out at 1.96 OD; in assay [10], 0.11 OD; in [11] it was 2.56 OD; in [12], 2.54 OD; in [13], 0.06 OD; in [14] it was 0.38 OD. For the same molecule, the OD450 is 0.07 OD in assay [15] and 2.55 OD in [16].

B11: F3.80.22-H17 (scFv, not shown: small tags and cut ends)
scFv: EVQLVQSGAEVKKPGATVKISCKVSGYTFTDYEIHWVQQAPGKGLEWMGAFDPEIGGSAYNQKFKDRVTITADKSTDTAYMELSSLRSEDTAVYYCTDYYGSSSGYFDVWGQGTTVTVSSGGGGSGGGGSGGGGSDIVMTQTPLSLPVTPGEPASISCRSSQSLEHNDGNTYLHWFLQKPGQSPQLLIYKVSNRFSGVPDRFSGSGSGTDFTLKISRVEAEDVGVYYCSQSTHVPFTFGQGTKLEIK
notes: also called S009-F3.80.22 humanized antibody VH1 + VL1a
In the case of B11, in assay [17], the 50% effective concentration (EC50) worked out at 4.41 nM and the Maximum_MFI stood at 1790 MFI. Further, in [18], the Maximum_MFI was determined as 356 MFI and the binding result is “no binding”.
